Residue numbers refer to the chain shown, from its start. In names and notes the source's numbering stands.
B1: Clone 2A2: M. jannaschii TyrRS variant for Formula I: Y32L, L65V, H70A, F108W, Q109S, D158V, I159A, L162V (protein, listed as Methanococcus jannaschii)
chain: MDEFEMIKRNTSEIISEEELREVLKKDEKSALIGFEPSGKIHLGHYLQIKKMIDLQNAGFDIIIVLADLAAYLNQKGELDEIRKIGDYNKKVFEAMGLKAKYVYGSEWSLDKDYTLNVYRLALKTTLKRARRSMELIAREDENPKVAEVIYPIMQVNVAHYVGVDVAVGGMEQRKIHMLARELLPKKVVCIHNPVLTGLDGEGKMSSSKGNFIAVDDSPEEIRAKIKKAYCPAGVVEGNPIMEIAKYFLEYPLTIKRPEKFGGDLTVNSYEELESLFKNKELHPMDLKNAVAEELIKILEPIRKRL
modifications: wild-type (WT) tyrosyl tRNA synthetase (TyrRS), reference sequence
notes: M. jannaschii TyrRS variant for Formula I: Y32L, L65V, H70A, F108W, Q109S, D158V, I159A, L162V
B2: Clone 2A9: M. jannaschii TyrRS variant for Formula II: Y32G, L65V, H70A, Q109S, D158G, L162S (protein, listed as Methanococcus jannaschii)
chain: B1 chain with L32G, W108F, V158G, A159I, V162S
modifications: wild-type (WT) tyrosyl tRNA synthetase (TyrRS), reference sequence
notes: M. jannaschii TyrRS variant for Formula II: Y32G, L65V, H70A, Q109S, D158G, L162S

Tested on: GFP (K49TAG) amber (TAG) codon / orthogonal CUA-encoding suppressor tRNA
Experiment: CFPS based GFP K49TAG amber suppression assay
Format: biochemical, E. coli
Settings: for full-length GFP expression by suppression of the TAG codon: clone titrated into CFPS reactions in the absence or presence of 4 μM non-natural amino acid; for amber suppression efficiency (levels of GFP detected): in the presence of the pyridyl-amino tetrazine compound (Formula I for 2A2, Formula II for 2A9), cell-free protein synthesis, 30° C., 12 h; for amber suppression (levels of GFP detected) without non-natural amino acid: reactions lacking the non-natural amino acid and containing the common naturally occurring amino acids
Method: The RS variants described herein were used to incorporate the compound of Formula I or the compound Formula II into the reporter protein Superfolder GFP. GFP containing a TAG stop codon at position 49 (GFP (K49TAG)) was expressed in a cell-free protein synthesis reaction as described in Zawada et al., 2011, Biotechnol. Bioeng., 108(7)1570-1578 with the following modifications. The cell free extracts were prepared from an OmpT sensitive RF-1 attenuated strain that was also engineered to overexpress E. coli DsbC, and a similar RF-1 attenuated E. coli strain that was engineered to produce an orthogonal CUA-encoding tRNA for insertion of a non-natural amino acid at an amber stop codon. The cell free extracts were blended (at a ratio of 85:15), and then added to a premix containing all other components of a cell-free protein synthesis system except for DNA encoding GFP (K49TAG). The final concentration in the cell-free protein synthesis reaction was 30% cell extract, with or without 2 mM non-natural amino acid (either Formula I or Formula II), 4 μM, 2 μM, 1 μM or no nnAA-specific RS variant (e.g., variant clone 1A7, 2A2, 1B7, 1B8, 2A1, 2B7, 2B5, 2A5, 2B4, 2B3, or 2A9), 8 mM magnesium glutamate, 10 mM ammonium glutamate, 130 mM potassium glutamate, 35 mM sodium pyruvate, 1.2 mM AMP, 0.86 mM each of GMP, UMP, and CMP, 2 mM amino acids (except 0.5 mM for tyrosine and phenylalanine), 4 mM sodium oxalate, 1 mM putrescine, 1.5 mM spermidine, 15 mM potassium phosphate, 100 nM T7 RNAP, 10 μg/mL GFP (K49TAG) expression template plasmid. The cell-free synthesis reactions were initiated by the addition of the plasmid DNA encoding GFP (K49TAG). The reactions were incubated at 30° C. for 12 h on a shaker at 650 rpm. After 12 hours of expression at the end point GFP fluorescence signal was measured at excitation at 476 nm, emission at 510 nm on a SpectraMax M5 fluorescence plate reader.
Similarly, clone 2A9, specific for Formula II, was titrated into the GFP-based amber supression CFPS reactions in the absence or presence of 4 μM Formula II.

Molecule	GFP levels relative to the positive GFP control reaction (reaction containing the non-natural amino acid and its specific RS clone (2A2 for Formula I, 2A9 for Formula II), control GFP has no premature stop codon)	full-length GFP expression by suppression of the TAG codon	amber suppression efficiency (levels of GFP detected)	amber suppression (levels of GFP detected) without non-natural amino acid
Cc1nnc(NCc2ccc(C[C@H](N)C(=O)O)nc2)nn1 [Formula I, (S)-2-amino-3-(5-((6-methyl-1,2,4,5-tetrazin-3-ylamino)methyl)pyridin-2-yl)propanoic acid]	comparable	–	–	–
B1	–	expressed only in the presence of the compound of Formula I	high amber suppression efficiencies	substantially no amber supression
B2	–	expressed only in the presence of the compound of Formula II	high amber suppression efficiencies	substantially no amber supression
